From article PMC5500849, “Cobamide-mediated enzymatic reductive dehalogenation via long-range electron transfer” (Nature Communications, 2017)

Tested on: Oc1c(Br)cc(Br)cc1Br
Assay: purified protein
Settings: reduced methyl viologen 0.5 mM / Ti(III) citrate 1.4 mM, 100 mM Tris-HCl pH 7.5, 22 °C, no NH4+

Substance “PceA (PceA–Strep) (Sulfurospirillum multivorans)” has a Km of 158 µM and a kcat of 8 s⁻¹.
